Results taken from patent publication US20060110769A1, “Regulation of novel human prolyl 4-hydroxylases” (Bayer Aktiengesellschaft, priority 2001, published 2006).

How the values were obtained:
Format in all cases: cell-based, human
HIF-2 alpha = assay: Cotransfection reporter assay (HIF-RE2-luc) with HIF-2 alpha in HEK/293 cells; details: for activity of HIF-2 alpha on reporter: HEK/293, hydroxylase and HIF-2 alpha cotransfected in a ratio 10:1; for activity on HIF-2 alpha compared with activity on HIF-1 alpha: HEK/293 cotransfection reporter assay
Description: (§1) HIF-prolyl hydroxylase activity of PH-2 was examined in a cellular co-transfection assay in HEK/293 cells. In a typical experiment, cells were seeded at a density of 2×10^4 cells per well in 96-well tissue culture plates (Greiner, Germany) and grown in DMEM F12 tissue culture medium (Gibco) supplemented with 10% fetal calf serum (PAA) and antibiotics for 24 hours at 37° C. in a humidified tissue culture incubator (Heraeus, Germany) in a 5% CO2 atmosphere. Plasmid DNA was introduced into the HEK/293 cells by use of Lipofectamin reagent (Gibco) according to the manufacturer's instructions.
(§2) The following expression plasmids were used in transfection experiments. pCDNA3 cloning vectors were obtained from Invitrogen: • HIF-1alpha pcDNA3 containing the coding sequence of mouse hypoxia inducible factor-1 alpha (Gene bank accession number: NM_010431). • HIF-1 alpha P402G pcDNA3 containing the coding sequence of mouse hypoxia inducible factor-1 alpha in which the HIF proline hydroxylase sensitive proline residue at position 402 was replaced with glycine by site-directed mutagenesis using QuickChange™ XL Site-Directed Mutagenesis Kit, Stratagene. • HIF-1 alpha P577G pcDNA3 containing the coding sequence of mouse hypoxia inducible factor-1alpha in which the HIF proline hydroxylase sensitive proline residue at position 577 (the ortholog of P564 of human HIF) was replaced with glycine by site-directed mutagenesis using QuickChange™ XL Site-Directed Mutagenesis Kit, Stratagene. • HIF-1 alpha P402/577G pcDNA3 containing the coding sequence of mouse hypoxia inducible factor-1alpha in which both HIF proline hydroxylase sensitive proline residues at positions 402 and 577 were replaced with glycine by site-directed mutagenesis using QuickChange™ XL Site-Directed Mutagenesis Kit, Stratagene. • HIF-2 alpha pcDNA3 containing the coding sequence of mouse hypoxia inducible factor-2 alpha (Gene bank accession number: AF045160). • HIF-RE2-luc, HIF reporter construct (constructed in pGL3, Promega) consisting of a minimal promoter containing a tandem of hypoxia responsible elements (FIG. 5, bold underlined) and the CMV promoter TATA box (FIG. 5, underlined) upstream of the firefly luciferase gene. • pRLTK (Promega) containing the coding sequence of renilla luciferase, used as transfection standard. • PH-alpha(I) pcDNA3 containing the coding sequence of human prolyl 4-hydroxylase alpha (I) (Gene bank accession number: U14620). • EGLN3 pcDNA3 containing the coding sequence of a recently identified human HIF-prolyl-hydroxylase (Epstein et al., Cell 107, 43-54, 2001; Bruick & McKnight, Science 294, 1337-40, 2001; gene bank accession number: XM—052824). • PH-2 pcDNA3 containing the coding sequence from SEQ ID NO:3.
(§3) In a typical experiment, 30 ng of HIF-RE2 pGL3 luciferase reporter plasmid and 10 ng pRLTK internal standard were cotransfected with prolyl-4 hydroxylase and HIF pCDNA3 expression plasmids. The amount of transfected pCDNA3 plasmids was kept constant at 60 ng by filling up with pCDNA3 empty cloning vector. Twenty-four hours later, luciferase activity was measured in a lumibox equipped with a Hamamatsu camera (Hamamatsu Photonics, Japan) using after lysis of cells in luciferase buffer.

HIF-2 alpha protein = assay: Western blot analysis of HIF-2 alpha protein in cotransfected HEK/293 cells; details: HEK/293, HIF-2 alpha specific polyclonal antibody
Description: HIF-prolyl hydroxylase activity of PH-2 was examined in a cellular co-transfection assay in HEK/293 cells. In a typical experiment, cells were seeded at a density of 2×10^4 cells per well in 96-well tissue culture plates (Greiner, Germany) and grown in DMEM F12 tissue culture medium (Gibco) supplemented with 10% fetal calf serum (PAA) and antibiotics for 24 hours at 37° C. in a humidified tissue culture incubator (Heraeus, Germany) in a 5% CO2 atmosphere. Plasmid DNA was introduced into the HEK/293 cells by use of Lipofectamin reagent (Gibco) according to the manufacturer's instructions. […]

HIF-1 alpha = assay: Cotransfection reporter assay (HIF-RE2-luc) with HIF-1 alpha in HEK/293 cells; details: for sensitivity of double mutant HIF-1 alpha (P402/577G) activity to cotransfected hydroxylase: HEK/293, double mutant, constitutively active; for sensitivity of HIF-1 alpha P402G mutant to cotransfected hydroxylase, versus wild type HIF-1 alpha: HEK/293, glycine substituted for P402; for sensitivity of HIF-1 alpha P577 mutant to cotransfected hydroxylase: HEK/293, mutation of P577; for reduction of transactivation activity of cotransfected HIF-1 alpha on hypoxia responsive reporter gene construct: HEK/293, wild type HIF-1 alpha, equal amounts of each plasmid transfected
Description: as §1, §2, §3
A luciferase reporter construct in which a tandem of hypoxia responsive elements linked to a minimal promoter drive firefly luciferase was cotransfected with HIF-1 alpha and HIF-2 alpha, respectively, and with the candidate HIF prolyl 4-hydroxylases EGLN3 and PH-2, respectively.

[1] = HEK/293, equal amounts of each plasmid transfected

B1: PH-2: novel human prolyl 4-hydroxylase, SEQ ID NO:4; expressed from PH-2 pcDNA3 containing the coding sequence from SEQ ID NO:3 (protein, listed as Homo sapiens)
chain: MAAAAVTGQRPETAAAEEASRPQWAPPDHCQAQAAAGLGDGEDAPVRPLCKPRGICSRAYFLVLMVFVHLYLGNVLALLLFVHYSNGDESSDPGPQHRAQGPGPEPTLGPLTRLEGIKVGHERKVQLVTDRDHFIRTLSLKPLLFEIPGFLTDEECRLIIHLAQMKGLQRSQILPTEEYEEAMSTMQVSQLDLFRLLDQNRDGHLQLREVLAQTRLGNGWWMTPESIQEMYAAIKADPDADGVLSLQEFSNMDLRDFHKYMRSHKAESSELVRNSHHTWLYQGEGAHHIMRAIRQRVLRLTRLSPEIVELSEPLQVVRYGEGGHYHAHVDSGPVYPETICSHTKLVANESVPFETSCRYMTVLFYLNNVTGGGETVFPVADNRTYDEMSLIQDDVDLRDTRRHCDKGNLRVKPQQGTAVFWYNYLPDGQGWVGDVDDYSLHGGCLVTRGTKWIANNWINVDPSRARQALFQQEMARLAREGGTDSQPEWALDRAYRDARVEL
activity of HIF-2 alpha on the hypoxia responsive reporter gene construct (HIF-2 alpha; [1]): reduced
activity on HIF-2 alpha relative to EGLN3 (HIF-2 alpha; [1]): by a factor two less active
activity of HIF-2 alpha on reporter (HIF-2 alpha): completely abolished
activity on HIF-2 alpha compared with activity on HIF-1 alpha (HIF-2 alpha): less active
HIF-2 alpha protein by Western blot (HIF-2 alpha protein): disappearance
sensitivity of double mutant HIF-1 alpha (P402/577G) activity to cotransfected hydroxylase (HIF-1 alpha): almost completely resistant
sensitivity of HIF-1 alpha P402G mutant to cotransfected hydroxylase, versus wild type HIF-1 alpha (HIF-1 alpha): equally sensitive
sensitivity of HIF-1 alpha P577 mutant to cotransfected hydroxylase (HIF-1 alpha): less sensitive
reduction of transactivation activity of cotransfected HIF-1 alpha on hypoxia responsive reporter gene construct (HIF-1 alpha): ~80%

B2: EGLN3: recently identified human HIF-prolyl-hydroxylase (gene bank accession number XM—052824), expressed from EGLN3 pcDNA3 (protein)
chain: MPLGHIMRLDLEKIALEYIVPCLHEVGFCYLDNFLGEVVGDCVLERVKQLHCTGALRDGQLAGPRAGVSKRHLRGDQITWIGGNEEGCEAISFLLSLIDRLVLYCGSRLGKYYVKERSKAMVACYPGNGTGYVRHVDNPNGDGRCITCIYYLNKNWDAKLHGGILRIFPEGKSFIADVEPIFDRLLFFWSDRRNPHEVQPSYATRYAMTVWYFDAEERAEAKKKFRNLTRKTESALTED
activity of HIF-2 alpha on the hypoxia responsive reporter gene construct (HIF-2 alpha; [1]): reduced
activity of HIF-2 alpha on reporter (HIF-2 alpha): completely abolished
activity on HIF-2 alpha compared with activity on HIF-1 alpha (HIF-2 alpha): less active
HIF-2 alpha protein by Western blot (HIF-2 alpha protein): disappearance
sensitivity of double mutant HIF-1 alpha (P402/577G) activity to cotransfected hydroxylase (HIF-1 alpha): almost completely resistant
sensitivity of HIF-1 alpha P402G mutant to cotransfected hydroxylase, versus wild type HIF-1 alpha (HIF-1 alpha): equally sensitive
sensitivity of HIF-1 alpha P577 mutant to cotransfected hydroxylase (HIF-1 alpha): less sensitive
reduction of transactivation activity of cotransfected HIF-1 alpha on hypoxia responsive reporter gene construct (HIF-1 alpha): about 90%

B3: PH-alpha(I): human collagen prolyl 4-hydroxylase alpha (I) (Gene bank accession number U14620), expressed from pcDNA3 (protein)
chain: HPGFFTSIGQMTDLIHTEKDLVTSLKDYIKAEEDKLEQIKKWAEKLDRLTSTATKDPEGFVGHPVNAFKLMKRLNTEWSELENLVLKDMSDGFISNLTIQRQYFPNDEDQVGAAKALLRLQDTYNLDTDTISKGNLPGVKHKSFLTAEDCFELGKVAYTEADYYHTELWMEQALRQLDEGEISTIDKVSVLDYLSYAVYQQGDLDKALLLTKKLLELDPEHQRANGNLKYFEYIMAKEKDVNKSASDDQSDQKTTPKKKGVAVDYLPERQKYEMLCRGEGIKMTPRRQKKLFCRYHDGNRNPKFILAPAKQEDEWDKPRIIRFHDIISDAEIEIVKDLAKPRLSRATVHDPETGKLTTAQYRVSKSAWLSGYENPVVSRINMRIQDLTGLDVSTAEELQVANYGVGGQYEPHFDFARKDEPDAFKELGTGNRIATWLFYMSDVSAGGATVFPEVGASVWPKKGTAVFWYNLFASGEGDYSTRHAACPVLVGNKWVSNKWLHERGQEFRRPCTLSELE
reduction of transactivation activity of cotransfected HIF-1 alpha on hypoxia responsive reporter gene construct (HIF-1 alpha): did not reduce
